In the supplement of paper PMC7877785:
± gives the uncertainty stated by the source.

Experiment: self-splicing fitness, log relative to wild type (ln ratio); higher = more splicing; Tetrahymena group I intron in knt gene, E. coli kanamycin selection, DiMSum; sequences stand for … in CUCUCU…GGAGGGAAAAGUUAUCAGGCAUGCACCUGGUAGCUAGUCUUUAAACCAAUAGAUUGCAUCGGUUUAAAAGGCAAGACCGUCAAAUUGCGGGAAAGGGGUCAACAGCCGUUCAGUACCAAGUCUCAGGGGAAACUUUGAGAUGGCCUUGCAAAGGGUAUGGUAAUAAGCUGACGGACAUGGUCCUAACCACGCAGCCAAGUCCUAAGUCAACAGAUCUUCUGUUGAUAUGGAUGCAGUUCACAGACUAAAUGUCGGUCGGGGAAGAUGUAUUCUUCUCAUAAGAUAUAGUCGGACCUCUCCUUAAUGGGAGCUAGCGGAUGAAGUGAUGCAACACUGGAGCCGCUGGGAACUAAUUUGUAUGCGAAAGUAUAUUGAUUAGUUUUGGAGUACUCGUGGUCG
Method in brief: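 The eight P1ex-region nucleotides of an intron in the knt kanamycin-resistance gene on pET-22b(+) were all randomised and the library put into E. coli BL21(DE3). Six replicate transformations were grown overnight at 37°C or 30°C on LB agar with or without 25 μg/mL kanamycin, together with 100 μg/mL carbenicillin, 50 μM IPTG and 0.2% rhamnose. Colonies were pooled and amplicon-sequenced on an Illumina HiSeq 2500. Fitness from DiMSum is the error-weighted combination of wild-type-normalised replicate fold changes, kanamycin over none.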

Sequence	self-splicing fitness (ln) (30 °C)	self-splicing fitness (ln) (37 °C)
GCCUAGCAAUAUUACGAGCU	-1.03 ± 0.14	-1.51 ± 0.14
GCCUAGCAAUAUUACGAUAC	-2.39 ± 0.11	-0.543 ± 0.1
GCCUAGCAAUAUUACGCAAG	-3.71 ± 0.47	–
GCCUAGCAAUAUUACGCAGU	-1.77 ± 0.13	-0.206 ± 0.12
GCCUAGCAAUAUUACGCAUC	-0.219 ± 0.066	0.571 ± 0.091
GCCUAGCAAUAUUACGCAUG	-4.28 ± 0.36	-1.67 ± 0.15
GCCUAGCAAUAUUACGCCCU	-0.974 ± 0.097	0.335 ± 0.13
GCCUAGCAAUAUUACGCCGC	-2.48 ± 0.36	-1.5 ± 0.34
GCCUAGCAAUAUUACGCCGG	–	-3.09 ± 0.37
GCCUAGCAAUAUUACGGAUA	-1.01 ± 0.17	-0.705 ± 0.13
GCCUAGCAAUAUUACGGCAC	-1.31 ± 0.17	-0.195 ± 0.14
GCCUAGCAAUAUUACGGCGG	-3.45 ± 0.24	-2.44 ± 0.35
GCCUAGCAAUAUUACGGCUU	-3.8 ± 0.22	-1.08 ± 0.16
GCCUAGCAAUAUUACGGGCC	-4.2 ± 0.26	-3.41 ± 0.39
GCCUAGCAAUAUUACGGUAC	-2.66 ± 0.15	-0.822 ± 0.13
GCCUAGCAAUAUUACGUGGC	-3.15 ± 0.32	-1.6 ± 0.33
GCCUAGCAAUAUUACGUUCC	-1.1 ± 0.17	0.341 ± 0.19
GCGAAGCAAUAUUACGAAAG	-4.38 ± 0.4	-1.14 ± 0.18
GCGAAGCAAUAUUACGAGAG	-3.95 ± 0.34	-1.91 ± 0.2
GCGAAGCAAUAUUACGAGUU	-3.19 ± 0.2	-2.16 ± 0.28
GCGAAGCAAUAUUACGAUGU	-2.82 ± 0.15	-1.42 ± 0.12

Sequence	self-splicing fitness (ln) (30 °C)	self-splicing fitness (ln) (37 °C)
GCGAAGCAAUAUUACGCCAA	–	-1.82 ± 0.39
GCGAAGCAAUAUUACGCCGG	-1.91 ± 0.47	-0.944 ± 0.47
GCGAAGCAAUAUUACGCCUC	-2.7 ± 0.42	–
GCGAAGCAAUAUUACGCUUG	-1.45 ± 0.26	-1.56 ± 0.35
GCGAAGCAAUAUUACGGACA	-0.834 ± 0.13	-0.85 ± 0.13
GCGAAGCAAUAUUACGGAUU	-1.33 ± 0.13	-1.17 ± 0.15
GCGAAGCAAUAUUACGGUAC	-2.89 ± 0.17	-1.2 ± 0.15
GCGAAGCAAUAUUACGUAGU	-3.8 ± 0.34	-2.13 ± 0.18
GCGAAGCAAUAUUACGUAUC	-3.34 ± 0.3	-0.83 ± 0.14
GCGAAGCAAUAUUACGUCUU	-2.56 ± 0.15	-2.06 ± 0.13
GCGCAGCAAUAUUACGAAAU	-0.982 ± 0.075	-0.192 ± 0.095
GCGCAGCAAUAUUACGAACU	0.116 ± 0.11	0.476 ± 0.13
GCGCAGCAAUAUUACGAAGA	-1.64 ± 0.13	-0.808 ± 0.12
GCGCAGCAAUAUUACGACGU	-1.69 ± 0.091	-1.13 ± 0.13
GCGCAGCAAUAUUACGACUA	-0.643 ± 0.12	0.154 ± 0.11
GCGCAGCAAUAUUACGAGAU	-1.85 ± 0.089	-0.7 ± 0.11
GCGCAGCAAUAUUACGAUAC	-1.4 ± 0.081	-1.49 ± 0.11
GCGCAGCAAUAUUACGCAUU	-1.4 ± 0.077	-0.154 ± 0.1
GCGCAGCAAUAUUACGCGCC	-3.43 ± 0.26	-2.41 ± 0.39
GCGCAGCAAUAUUACGCGCU	–	-1.41 ± 0.28
GCGCAGCAAUAUUACGGCAC	-0.436 ± 0.11	-0.634 ± 0.13

Sequence	self-splicing fitness (ln) (30 °C)	self-splicing fitness (ln) (37 °C)
GCGCAGCAAUAUUACGGCAG	-3.47 ± 0.15	-2.85 ± 0.19
GCGCAGCAAUAUUACGGCUA	-0.44 ± 0.092	0.0852 ± 0.097
GCGCAGCAAUAUUACGGGUU	-1.71 ± 0.042	-0.67 ± 0.053
GCGCAGCAAUAUUACGGUAU	-0.825 ± 0.039	-0.0516 ± 0.054
GCGCAGCAAUAUUACGUACU	-1.32 ± 0.072	-0.505 ± 0.092
GCGCAGCAAUAUUACGUCCU	-0.435 ± 0.12	0.126 ± 0.14
GCGCAGCAAUAUUACGUCGC	-2.27 ± 0.14	-2.2 ± 0.27
GCGCAGCAAUAUUACGUUAC	-2.71 ± 0.14	-1.12 ± 0.14
GCGGAGCAAUAUUACGAACA	-2.71 ± 0.45	-2.78 ± 0.43
GCGGAGCAAUAUUACGACGG	-2.27 ± 0.19	-1.13 ± 0.2
GCGGAGCAAUAUUACGAGUU	-3.16 ± 0.31	-1.91 ± 0.25
GCGGAGCAAUAUUACGAUAG	-2.96 ± 0.38	-2.67 ± 0.44
GCGGAGCAAUAUUACGAUAU	-2.17 ± 0.14	-2.02 ± 0.18
GCGGAGCAAUAUUACGCAAG	-2.73 ± 0.38	-2.3 ± 0.31
GCGGAGCAAUAUUACGCAAU	-3.51 ± 0.43	–
GCGGAGCAAUAUUACGCGAA	–	-0.648 ± 0.23
GCGGAGCAAUAUUACGCGCU	-1.88 ± 0.4	–
GCGGAGCAAUAUUACGCGGU	-1.68 ± 0.44	–
GCGGAGCAAUAUUACGCUUC	-2.09 ± 0.38	–
GCGGAGCAAUAUUACGCUUU	-3.1 ± 0.31	-3.21 ± 0.28
GCGGAGCAAUAUUACGGACC	-1.77 ± 0.34	–

Sequence	self-splicing fitness (ln) (30 °C)	self-splicing fitness (ln) (37 °C)
GCGGAGCAAUAUUACGGACG	-3.15 ± 0.47	-2.33 ± 0.42
GCGGAGCAAUAUUACGGCAU	-1.88 ± 0.12	-0.979 ± 0.13
GCGGAGCAAUAUUACGGCCU	–	0.0586 ± 0.34
GCGGAGCAAUAUUACGGCGC	-2.22 ± 0.36	–
GCGGAGCAAUAUUACGGGCU	-2.38 ± 0.36	–
GCGGAGCAAUAUUACGGUUC	–	-1.69 ± 0.4
GCGGAGCAAUAUUACGUAAU	-1.52 ± 0.15	-1.73 ± 0.24
GCGGAGCAAUAUUACGUCUG	-3.82 ± 0.42	-2.44 ± 0.41
GCGGAGCAAUAUUACGUGGC	-2.82 ± 0.18	-3.01 ± 0.43
GCGGAGCAAUAUUACGUGUA	-3.49 ± 0.37	-2.58 ± 0.38
GCGGAGCAAUAUUACGUGUU	-2.9 ± 0.31	-1.47 ± 0.18
GCGGAGCAAUAUUACGUUAC	-1.51 ± 0.22	-2.36 ± 0.39
GCGGAGCAAUAUUACGUUAG	-2.8 ± 0.23	-1.99 ± 0.35
GCGGAGCAAUAUUACGUUUU	-3.29 ± 0.21	-2.02 ± 0.21
GCGUAGCAAUAUUACGACUC	0.552 ± 0.19	-0.215 ± 0.26
GCGUAGCAAUAUUACGAGAC	-1.13 ± 0.2	-2.37 ± 0.39
GCGUAGCAAUAUUACGAGCU	-1.5 ± 0.12	-1.66 ± 0.23
GCGUAGCAAUAUUACGAUGA	-0.962 ± 0.13	0.16 ± 0.14
